Results as given in patent publication US20260001928A1 (CORTERIA PHARMACEUTICALS, priority 2022, published 2026).
*1 amine or outer side, *2 acyl side, *3 side chain or, on linkers, in order; H or OH if unused. Side-chain parts run from the residue outwards. [ ]: non-standard residue; d: D form. The star is where a group is joined. C18 diacid = O=C(O)CCCCCCCCCCCCCCCCC(=O)*; C16 diacid = O=C(O)CCCCCCCCCCCCCCC(=O)*; γGlu = O=C(O)[C@H](CCC(=O)[*:2])N[*:1]; Pentanoyl = CCCCC(=O)*; AEEA = NCCOCCOCC(=O)O; Aib = CC(C)(N)C(=O)O; Butyryl = CCCC(=O)*

T1: CRF1R receptor (UniProt P34998 24-415, limits assumed)
T1 sequence (looked up): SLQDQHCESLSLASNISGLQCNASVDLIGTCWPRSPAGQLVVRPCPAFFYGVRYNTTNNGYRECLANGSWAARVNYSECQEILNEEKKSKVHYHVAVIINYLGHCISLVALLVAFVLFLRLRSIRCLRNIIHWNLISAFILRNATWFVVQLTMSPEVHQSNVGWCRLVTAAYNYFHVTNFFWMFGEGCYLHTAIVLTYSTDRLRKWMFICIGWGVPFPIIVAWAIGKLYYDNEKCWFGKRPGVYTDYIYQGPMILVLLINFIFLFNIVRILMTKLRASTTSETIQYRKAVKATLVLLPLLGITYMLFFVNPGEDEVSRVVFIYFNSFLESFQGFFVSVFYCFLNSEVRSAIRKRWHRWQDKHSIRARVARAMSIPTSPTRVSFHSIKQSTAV

B1: SEQ ID NO 203 (peptide)
peptide: Ac-IVLSLD[dV]PIKLK([AEEA-γGlu-C18 diacid])KILLEQEKQKKQREQAETN[Aib]QILAQV-NH2
SMILES: CC[C@H](C)[C@H](NC(C)=O)C(=O)N[C@H](C(=O)N[C@@H](CC(C)C)C(=O)N[C@@H](CO)C(=O)N[C@@H](CC(C)C)C(=O)N[C@@H](CC(=O)O)C(=O)N[C@@H](C(=O)N1CCC[C@H]1C(=O)N[C@H](C(=O)N[C@@H](CCCCN)C(=O)N[C@@H](CC(C)C)C(=O)N[C@@H](CCCCNC(=O)COCCOCCNC(=O)CC[C@H](NC(=O)CCCCCCCCCCCCCCCCC(=O)O)C(=O)O)C(=O)N[C@@H](CCCCN)C(=O)N[C@H](C(=O)N[C@@H](CC(C)C)C(=O)N[C@@H](CC(C)C)C(=O)N[C@@H](CCC(=O)O)C(=O)N[C@@H](CCC(N)=O)C(=O)N[C@@H](CCC(=O)O)C(=O)N[C@@H](CCCCN)C(=O)N[C@@H](CCC(N)=O)C(=O)N[C@@H](CCCCN)C(=O)N[C@@H](CCCCN)C(=O)N[C@@H](CCC(N)=O)C(=O)N[C@@H](CCCNC(=N)N)C(=O)N[C@@H](CCC(=O)O)C(=O)N[C@@H](CCC(N)=O)C(=O)N[C@@H](C)C(=O)N[C@@H](CCC(=O)O)C(=O)N[C@H](C(=O)N[C@@H](CC(N)=O)C(=O)NC(C)(C)C(=O)N[C@@H](CCC(N)=O)C(=O)N[C@H](C(=O)N[C@@H](CC(C)C)C(=O)N[C@@H](C)C(=O)N[C@@H](CCC(N)=O)C(=O)N[C@H](C(N)=O)C(C)C)[C@@H](C)CC)[C@@H](C)O)[C@@H](C)CC)[C@@H](C)CC)C(C)C)C(C)C
B2: SEQ ID NO 7 (peptide)
peptide: Butyryl-VLSLD[dV]PIKLK([γGlu-C16 diacid])QILLKQERQKKQREQAEKNKQILEQV-NH2
SMILES: CCCC(=O)N[C@H](C(=O)N[C@@H](CC(C)C)C(=O)N[C@@H](CO)C(=O)N[C@@H](CC(C)C)C(=O)N[C@@H](CC(=O)O)C(=O)N[C@@H](C(=O)N1CCC[C@H]1C(=O)N[C@H](C(=O)N[C@@H](CCCCN)C(=O)N[C@@H](CC(C)C)C(=O)N[C@@H](CCCCNC(=O)CC[C@H](NC(=O)CCCCCCCCCCCCCCC(=O)O)C(=O)O)C(=O)N[C@@H](CCC(N)=O)C(=O)N[C@H](C(=O)N[C@@H](CC(C)C)C(=O)N[C@@H](CC(C)C)C(=O)N[C@@H](CCCCN)C(=O)N[C@@H](CCC(N)=O)C(=O)N[C@@H](CCC(=O)O)C(=O)N[C@@H](CCCNC(=N)N)C(=O)N[C@@H](CCC(N)=O)C(=O)N[C@@H](CCCCN)C(=O)N[C@@H](CCCCN)C(=O)N[C@@H](CCC(N)=O)C(=O)N[C@@H](CCCNC(=N)N)C(=O)N[C@@H](CCC(=O)O)C(=O)N[C@@H](CCC(N)=O)C(=O)N[C@@H](C)C(=O)N[C@@H](CCC(=O)O)C(=O)N[C@@H](CCCCN)C(=O)N[C@@H](CC(N)=O)C(=O)N[C@@H](CCCCN)C(=O)N[C@@H](CCC(N)=O)C(=O)N[C@H](C(=O)N[C@@H](CC(C)C)C(=O)N[C@@H](CCC(=O)O)C(=O)N[C@@H](CCC(N)=O)C(=O)N[C@H](C(N)=O)C(C)C)[C@@H](C)CC)[C@@H](C)CC)[C@@H](C)CC)C(C)C)C(C)C
B3: SEQ ID NO 204 (peptide)
peptide: Ac-IVLSLD[dV]PIKLK([AEEA-AEEA-γGlu-γGlu-C18 diacid])KILLEQEKQKKQREQAETN[Aib]QILAQV-NH2
SMILES: CC[C@H](C)[C@H](NC(C)=O)C(=O)N[C@H](C(=O)N[C@@H](CC(C)C)C(=O)N[C@@H](CO)C(=O)N[C@@H](CC(C)C)C(=O)N[C@@H](CC(=O)O)C(=O)N[C@@H](C(=O)N1CCC[C@H]1C(=O)N[C@H](C(=O)N[C@@H](CCCCN)C(=O)N[C@@H](CC(C)C)C(=O)N[C@@H](CCCCNC(=O)COCCOCCNC(=O)COCCOCCNC(=O)CC[C@H](NC(=O)CC[C@H](NC(=O)CCCCCCCCCCCCCCCCC(=O)O)C(=O)O)C(=O)O)C(=O)N[C@@H](CCCCN)C(=O)N[C@H](C(=O)N[C@@H](CC(C)C)C(=O)N[C@@H](CC(C)C)C(=O)N[C@@H](CCC(=O)O)C(=O)N[C@@H](CCC(N)=O)C(=O)N[C@@H](CCC(=O)O)C(=O)N[C@@H](CCCCN)C(=O)N[C@@H](CCC(N)=O)C(=O)N[C@@H](CCCCN)C(=O)N[C@@H](CCCCN)C(=O)N[C@@H](CCC(N)=O)C(=O)N[C@@H](CCCNC(=N)N)C(=O)N[C@@H](CCC(=O)O)C(=O)N[C@@H](CCC(N)=O)C(=O)N[C@@H](C)C(=O)N[C@@H](CCC(=O)O)C(=O)N[C@H](C(=O)N[C@@H](CC(N)=O)C(=O)NC(C)(C)C(=O)N[C@@H](CCC(N)=O)C(=O)N[C@H](C(=O)N[C@@H](CC(C)C)C(=O)N[C@@H](C)C(=O)N[C@@H](CCC(N)=O)C(=O)N[C@H](C(N)=O)C(C)C)[C@@H](C)CC)[C@@H](C)O)[C@@H](C)CC)[C@@H](C)CC)C(C)C)C(C)C
B4: SEQ ID NO 202 (peptide)
peptide: Pentanoyl-VLSLD[dV]PIKLK([AEEA-AEEA-γGlu-C18 diacid])KILLEQEKQK[Aib]QREQAETN[Aib]QILAQV-NH2
SMILES: CCCCC(=O)N[C@H](C(=O)N[C@@H](CC(C)C)C(=O)N[C@@H](CO)C(=O)N[C@@H](CC(C)C)C(=O)N[C@@H](CC(=O)O)C(=O)N[C@@H](C(=O)N1CCC[C@H]1C(=O)N[C@H](C(=O)N[C@@H](CCCCN)C(=O)N[C@@H](CC(C)C)C(=O)N[C@@H](CCCCNC(=O)COCCOCCNC(=O)COCCOCCNC(=O)CC[C@H](NC(=O)CCCCCCCCCCCCCCCCC(=O)O)C(=O)O)C(=O)N[C@@H](CCCCN)C(=O)N[C@H](C(=O)N[C@@H](CC(C)C)C(=O)N[C@@H](CC(C)C)C(=O)N[C@@H](CCC(=O)O)C(=O)N[C@@H](CCC(N)=O)C(=O)N[C@@H](CCC(=O)O)C(=O)N[C@@H](CCCCN)C(=O)N[C@@H](CCC(N)=O)C(=O)N[C@@H](CCCCN)C(=O)NC(C)(C)C(=O)N[C@@H](CCC(N)=O)C(=O)N[C@@H](CCCNC(=N)N)C(=O)N[C@@H](CCC(=O)O)C(=O)N[C@@H](CCC(N)=O)C(=O)N[C@@H](C)C(=O)N[C@@H](CCC(=O)O)C(=O)N[C@H](C(=O)N[C@@H](CC(N)=O)C(=O)NC(C)(C)C(=O)N[C@@H](CCC(N)=O)C(=O)N[C@H](C(=O)N[C@@H](CC(C)C)C(=O)N[C@@H](C)C(=O)N[C@@H](CCC(N)=O)C(=O)N[C@H](C(N)=O)C(C)C)[C@@H](C)CC)[C@@H](C)O)[C@@H](C)CC)[C@@H](C)CC)C(C)C)C(C)C

The binders below were run against human corticotropin-releasing factor 2a (CRF2a receptor) (human), Q13324 (assay: cell-based or functional assay).
human corticotropin-releasing factor 2a (CRF2a receptor) (human), Q13324, sequence (Q13324 20-411): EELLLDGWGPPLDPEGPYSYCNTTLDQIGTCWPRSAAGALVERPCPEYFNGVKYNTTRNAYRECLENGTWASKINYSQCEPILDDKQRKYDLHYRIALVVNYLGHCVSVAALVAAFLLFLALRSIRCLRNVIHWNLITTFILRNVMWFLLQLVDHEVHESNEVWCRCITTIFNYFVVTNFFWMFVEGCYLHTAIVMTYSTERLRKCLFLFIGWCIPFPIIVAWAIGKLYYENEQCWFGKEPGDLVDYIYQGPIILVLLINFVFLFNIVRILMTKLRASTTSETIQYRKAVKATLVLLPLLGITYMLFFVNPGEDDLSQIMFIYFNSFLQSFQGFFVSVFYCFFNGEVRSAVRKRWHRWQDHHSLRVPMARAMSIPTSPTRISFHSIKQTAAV

Binder | EC50 [nM] (cAMP)
B1 | 0.43
B2 | 0.06
B3 | 1.84
B4 | 1.73

The binders below were run against T1, CRF1R receptor (assay: cell-based or functional assay).

Binder | Emax (% I) [%] | EC50 [nM]
B1 | 3 | 
B2 | 59 | 101
B3 | -2 | 
B4 | 8 | 
